The labels stand for the following.
B1: Protein OPY2 (Saccharomyces cerevisiae), Q06810 (parent)
chain: MSSSSKASASSSLSSTATSSTSATRGSDGCVVCDSTASCPVCASGEYCVMTSLTCDKCPSTYCAKQSDSQLSSLSSSSSSSSSSNSNEKTSLIVGFTVGIVGGAMLIALVALYFINKRYWKPKRQKNKALKLEEASQSYGNEEEYFDDEDDDDEDDEDDGGMRKDESHTLFNTSLVPPTLNVPGNRSSASTTRTRASNILPIAYIPGVTSGLSTDKLQSKLRSSSKRQNAAGDIRSHITLGSSILDGLDDEDDEHNQVLNKDADDNLITAIRAKPKLVQIAEEESDKEIQDLDVIEEQTEADDLSHMAKSEASHGNNDEDDDEEGSFILDLEIPESIRESTQGSRTESPFEDKFEIHDER
partner: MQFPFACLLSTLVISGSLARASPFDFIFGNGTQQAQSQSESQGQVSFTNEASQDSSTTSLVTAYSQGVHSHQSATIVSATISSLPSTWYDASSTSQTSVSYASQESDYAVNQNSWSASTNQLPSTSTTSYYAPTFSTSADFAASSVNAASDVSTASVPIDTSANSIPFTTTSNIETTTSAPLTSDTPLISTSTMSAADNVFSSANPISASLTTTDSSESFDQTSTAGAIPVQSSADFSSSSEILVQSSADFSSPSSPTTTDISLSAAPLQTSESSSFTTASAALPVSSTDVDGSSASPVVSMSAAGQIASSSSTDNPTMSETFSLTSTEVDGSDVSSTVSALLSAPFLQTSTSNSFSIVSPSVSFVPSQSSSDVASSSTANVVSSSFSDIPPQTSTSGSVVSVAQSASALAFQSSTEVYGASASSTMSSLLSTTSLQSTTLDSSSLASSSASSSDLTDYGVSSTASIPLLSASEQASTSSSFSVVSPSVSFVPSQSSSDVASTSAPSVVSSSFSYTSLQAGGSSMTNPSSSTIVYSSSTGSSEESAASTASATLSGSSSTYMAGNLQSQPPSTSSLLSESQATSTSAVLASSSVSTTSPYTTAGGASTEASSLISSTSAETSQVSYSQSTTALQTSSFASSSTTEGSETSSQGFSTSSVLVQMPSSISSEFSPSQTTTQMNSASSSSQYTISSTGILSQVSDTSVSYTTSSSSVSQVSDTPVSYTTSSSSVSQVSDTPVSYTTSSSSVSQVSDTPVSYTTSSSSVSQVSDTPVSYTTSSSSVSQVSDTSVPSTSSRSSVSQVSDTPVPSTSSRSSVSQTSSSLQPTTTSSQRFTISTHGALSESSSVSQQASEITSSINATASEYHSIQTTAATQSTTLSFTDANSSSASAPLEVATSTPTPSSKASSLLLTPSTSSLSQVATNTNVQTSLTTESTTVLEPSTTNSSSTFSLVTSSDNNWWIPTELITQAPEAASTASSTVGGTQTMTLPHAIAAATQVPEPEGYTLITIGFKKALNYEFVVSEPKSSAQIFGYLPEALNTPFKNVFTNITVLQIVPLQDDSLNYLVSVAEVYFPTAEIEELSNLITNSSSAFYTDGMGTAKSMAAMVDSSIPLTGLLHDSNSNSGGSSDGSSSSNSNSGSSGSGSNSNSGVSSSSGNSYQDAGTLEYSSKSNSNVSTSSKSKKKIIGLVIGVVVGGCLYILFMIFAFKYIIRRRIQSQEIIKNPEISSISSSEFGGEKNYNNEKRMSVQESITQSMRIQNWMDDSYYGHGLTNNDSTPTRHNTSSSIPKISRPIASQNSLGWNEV

In the assay the parent is B1. The note with it: with msb2_yeast MSB2, P32334.
Regarding C30A;C55A, the “effect of a mutation on the interaction” value was “decreasing interaction strength”.

C33A;C58A: the “effect of a mutation on the interaction” value is “decreasing interaction strength”.

Turning to C33A;C39A, the “effect of a mutation on the interaction” value is reported as “disrupting interaction strength”.

Consider C30A;C42A, for which the “effect of a mutation on the interaction” value is recorded as “disrupting interaction strength”.
